Data from patent publication US20250145679A1.

How the values were obtained:
[1] = target: human lymphoma (HH) cell line (human); assay: binding to HH cells, dose-dependent (FIG. 5); receptor on the cells not named
[2] = target: T1, IL-2/15Rβ (CD122) ECD (human) (UniProt P14784); assay: SPR, Biacore 8K, complex captured on anti-human Fc CM5 chip, receptor ECD-His injected; ka and kd printed as NA
T1 sequence: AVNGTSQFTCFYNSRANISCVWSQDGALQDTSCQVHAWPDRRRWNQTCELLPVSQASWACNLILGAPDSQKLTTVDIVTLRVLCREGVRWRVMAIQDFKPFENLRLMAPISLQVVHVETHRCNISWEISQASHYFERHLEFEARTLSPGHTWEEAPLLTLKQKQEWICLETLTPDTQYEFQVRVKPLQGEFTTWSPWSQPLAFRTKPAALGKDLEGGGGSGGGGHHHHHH

B1: W327151-BMK1 (XENP24306) (Fc fusion, part only; not given: IL-15Ralpha-Fc chain, linker and Fc, not shown: a dimerising Fc or GST)
chain, part: NWVNVISDLKKIEDLIQSMHIDATLYTESNVHPSCKVTAMKCFLLELQVISLESGDASIHDTVQDLIILANNSLSSNGNVTESGCKECEELEEKNIKEFLQSFVHIVQMFINTS
Question: For B1, which EC50 [1] is on record?
Answer: Its EC50 is 0.172 µM.

Question: And the Kd [2]?
Answer: Its Kd is 8.58 µM.
